Data from the supplement of paper PMC11246515.
± gives the standard deviation of the averaged measurements.

Assay: total protein half-life in vivo (active degradation + dilution); higher = more stable protein
[1] = E. coli NCM3722 delta-clpP delta-lon delta-hslV, growth: N-lim chemostat, doubling time 6 h
[2] = E. coli NCM3722 delta-hslV, growth: N-lim chemostat, doubling time 6 h
[3] = wild type E. coli NCM3722, growth: C-lim chemostat, doubling time 3 h
[4] = wild type E. coli NCM3722, growth: C-lim chemostat, doubling time 6 h
[5] = wild type E. coli NCM3722, growth: C-lim chemostat, doubling time 12 h
[6] = wild type E. coli NCM3722, growth: N-lim chemostat, doubling time 6 h
[7] = E. coli NCM3722 delta-clpP, growth: N-lim chemostat, doubling time 6 h
[8] = E. coli NCM3722 delta-smpB, growth: N-lim chemostat, doubling time 6 h
[9] = wild type E. coli NCM3722, growth: N-lim chemostat, doubling time 12 h
[10] = wild type E. coli NCM3722, growth: P-lim chemostat, doubling time 6 h
[11] = wild type E. coli NCM3722, growth: P-lim chemostat, doubling time 12 h
[12] = E. coli NCM3722 delta-lon, growth: N-lim chemostat, doubling time 6 h

Row | Sequence | total protein half-life in vivo [1] [h] | total protein half-life in vivo [2] [h] | total protein half-life in vivo [3] [h] | total protein half-life in vivo [4] [h] | total protein half-life in vivo [5] [h] | total protein half-life in vivo [6] [h] | total protein half-life in vivo [7] [h] | total protein half-life in vivo [8] [h] | total protein half-life in vivo [9] [h] | total protein half-life in vivo [10] [h] | total protein half-life in vivo [11] [h] | total protein half-life in vivo [12] [h]
1 | MQQIARSVALAFNNLPRPHRVMLGSLTVLTLAVAVWRPYVYHRDATPIVKTIELEQNEIRSLLPEASEPIDQAAQEDEAIPQDELDDKIAGEAGVHEYVVSTGDTLSSILNQYGIDMGDITQLAAADKELRNLKIGQQLSWTLTADGELQRLTWEVSRRETRTYDRTAANGFKMTSEMQQGEWVNNLLKGTVGGSFVASARNAGLTSAEVSAVIKAMQWQMDFRKLKKGDEFAVLMSREMLDGKREQSQLLGVRLRSEGKDYYAIRAEDGKFYDRNGTGLAKGFLRFPTAKQFRISSNFNPRRTNPVTGRVAPHRGVDFAMPQGTPVLSVGDGEVVVAKRSGAAGYYVAIRHGRSYTTRYMHLRKILVKPGQKVKRGDRIALSGNTGRSTGPHLHYEVWINQQAVNPLTAKLPRTEGLTGSDRREFLAQAKEIVPQLRFD [P0AFS9] | 3.29 | 6.32 | 0.826 ± 0.34 | 3.3 ± 0.13 | 6.19 | 5.39 | – | – | – | – | – | –
2 | MPHSLFSTDTDLTAENLLRLPAEFGCPVWVYDAQIIRRQIAALKQFDVVRFAQKACSNIHILRLMREQGVKVDSVSLGEIERALAAGYNPQTHPDDIVFTADVIDQATLERVSELQIPVNAGSVDMLDQLGQVSPGHRVWLRVNPGFGHGHSQKTNTGGENSKHGIWYTDLPAALDVIQRHHLQLVGIHMHIGSGVDYAHLEQVCGAMVRQVIEFGQDLQAISAGGGLSVPYQQGEEAVDTEHYYGLWNAAREQIARHLGHPVKLEIEPGRFLVAQSGVLITQVRSVKQMGSRHFVLVDAGFNDLMRPAMYGSYHHISALAADGRSLEHAPTVETVVAGPLCESGDVFTQQEGGNVETRALPEVKAGDYLVLHDTGAYGASMSSNYNSRPLLPEVLFDNGQARLIRRRQTIEELLALELL | 3.43 ± 0.39 | 2.41 ± 0.37 | 2.91 ± 0.14 | 4.76 ± 0.92 | 8.09 ± 0.86 | 2.53 ± 0.12 | 2.81 ± 0.36 | 2.06 ± 0.69 | 3.6 ± 0.33 | 5.29 ± 0.3 | 9.66 ± 0.16 | –
3 | MLHLFAGLDLHTGLLLLLALAFVLFYEAINGFHDTANAVATVIYTRAMRSQLAVVMAAVFNFLGVLLGGLSVAYAIVHMLPTDLLLNMGSSHGLAMVFSMLLAAIIWNLGTWYFGLPASSSHTLIGAIIGIGLTNALMTGTSVVDALNIPKVLSIFGSLIVSPIVGLVFAGGLIFLLRRYWSGTKKRARIHLTPAEREKKDGKKKPPFWTRIALILSAIGVAFSHGANDGQKGIGLVMLVLIGVAPAGFVVNMNATGYEITRTRDAINNVEAYFEQHPALLKQATGADQLVPAPEAGATQPAEFHCHPSNTINALNRLKGMLTTDVESYDKLSLDQRSQMRRIMLCVSDTIDKVVKMPGVSADDQRLLKKLKSDMLSTIEYAPVWIIMAVALALGIGTMIGWRRVATTIGEKIGKKGMTYAQGMSAQMTAAVSIGLASYTGMPVSTTHVLSSSVAGTMVVDGGGLQRKTVTSILMAWVFTLPAAVLLSGGLYWLSLQFL [P0AFJ7] | 6.99 ± 0.45 | – | 3.761 ± 0.013 | 6.37 ± 1.4 | 14.4 ± 0.95 | 6.13 ± 0.24 | 6.5 ± 1.2 | 6.14 ± 0.78 | – | 6.54 ± 0.4 | 12.6 ± 1 | –
4 | MTLSFVTRWRDELPETYTALSPTPLNNARLIWHNTELANTLSIPSSLFKNGAGVWGGEALLPGMSPLAQVYSGHQFGVWAGQLGDGRGILLGEQLLADGTTMDWHLKGAGLTPYSRMGDGRAVLRSTIRESLASEAMHYLGIPTTRALSIVTSDSPVYRETAEPGAMLMRVAPSHLRFGHFEHFYYRRESEKVRQLADFAIRHYWSHLADDEDKYRLWFSDVVARTASLIAQWQTVGFAHGVMNTDNMSLLGLTLDYGPFGFLDDYEPGFICNHSDHQGRYSFDNQPAVALWNLQRLAQTLSPFVAVDALNEALDSYQQVLLTHYGERMRQKLGFMTEQKEDNALLNELFSLMARERSDYTRTFRMLSLTEQHSAASPLRDEFIDRAAFDDWFARYRGRLQQDEVSDSERQQLMQSVNPALVLRNWLAQRAIEAAEKGDMTELHRLHEALRNPFSDRDDDYVSRPPDWGKRLEVSCSS | 4.63 ± 0.32 | 3.15 ± 0.38 | 2.72 ± 0.068 | 4.57 ± 0.15 | 8.02 ± 1.4 | 2.971 ± 0.012 | 4.26 ± 0.67 | 2.8 ± 0.21 | 4.63 ± 0.64 | 4.72 ± 0.71 | 8.293 ± 0.077 | 3.26 ± 0.13
5 | MATLLQLHFAFNGPFGDAMAEQLKPLAESINQEPGFLWKVWTESEKNHEAGGIYLFTDEKSALAYLEKHTARLKNLGVEEVVAKVFDVNEPLSQINQAKLA [P0ACX3] | 5.41 ± 1.1 | 3.94 ± 0.085 | 3.22 ± 0.24 | 4.809 ± 0.035 | 8.79 ± 2.3 | 3.27 ± 0.054 | 3.68 ± 0.39 | 4.07 ± 0.095 | 5.75 ± 0.85 | 4.79 ± 0.49 | 10.1 ± 1.1 | 5.96 ± 0.17
